Source: ChEMBL document CHEMBL1134058, “Phospho-Azatyrosine, a less effective protein-tyrosine phosphatase substrate than phosphotyrosine” (Bioorg Med Chem Lett, 2001)

Assays:
[1] = substrate: CC(=O)N[C@@H](CC(=O)O)C(=O)N[C@@H](C)C(=O)N[C@@H](CC(=O)O)C(=O)N[C@@H](CCC(=O)O)C(=O)N[C@@H](Cc1ccc(OP(=O)(O)O)cc1)C(=O)N[C@@H](CC(C)C)C(N)=O; assay: (§1) Binding affinity constant against mammalian protein-tyrosine phosphatase 1 (PTP1)
[2] = substrate: CC(=O)N[C@@H](CC(=O)O)C(=O)N[C@@H](C)C(=O)N[C@@H](CC(=O)O)C(=O)N[C@@H](CCC(=O)O)C(=O)N[C@@H](Cc1ccc(OP(=O)(O)O)cn1)C(=O)N[C@@H](CC(C)C)C(N)=O; assay: as §1

B1: Tyrosine-protein phosphatase non-receptor type 1 (Homo sapiens), P18031 (protein)
chain: MEMEKEFEQIDKSGSWAAIYQDIRHEASDFPCRVAKLPKNKNRNRYRDVSPFDHSRIKLHQEDNDYINASLIKMEEAQRSYILTQGPLPNTCGHFWEMVWEQKSRGVVMLNRVMEKGSLKCAQYWPQKEEKEMIFEDTNLKLTLISEDIKSYYTVRQLELENLTTQETREILHFHYTTWPDFGVPESPASFLNFLFKVRESGSLSPEHGPVVVHCSAGIGRSGTFCLADTCLLLMDKRKDPSSVDIKKVLLEMRKFRMGLIQTADQLRFSYLAVIEGAKFIMGDSSVQDQWKELSHEDLEPPPEHIPPPPRPPKRILEPHNGKCREFFPNHQWVKEETQEDKDCPIKEEKGSPLNAAPYGIESMSQDTEVRSRVVGGSLRGAQAASPAKGEPSLPEKDEDHALSYWKPFLVNMCVATVLTAGAYLCYRFLFNSNT
In the case of B1, the Km [1] is reported as 3.6 µM and the Km [2] is reported as 210 µM.
